From patent US20040176301A1 (CYCLACEL, published 2004)
Like-named read-outs stand apart in the source and are kept apart here. Square brackets hold non-standard residues; d marks the D form. Ends that are not written are not given here. 1Nal = N[C@@H](Cc1cccc2ccccc12)C(=O)O; hPhe = N[C@@H](CCc1ccccc1)C(=O)O; Cha = N[C@@H](CC1CCCCC1)C(=O)O; Nle = CCCC[C@H](N)C(=O)O; Nva = CCC[C@H](N)C(=O)O; Abu = CC[C@H](N)C(=O)O

Legend:
Experiment in all cases: cell-based or functional assay
CDK2/Cyclin E complex [1] = target: T1, CDK2/Cyclin E complex (UniProt P24941 1-298; P24864 1-410)
CDK4/Cyclin D1 complex [2] = target: T2, CDK4/Cyclin D1 complex (UniProt P11802 1-303; P24385 1-295)
CDK2/Cyclin E complex [3] = target: T1, CDK2/Cyclin E complex; remark: listed apart in the source
CDK4/Cyclin D1 complex [4] = target: T2, CDK4/Cyclin D1 complex; remark: listed apart in the source
CDK2/cyclin A [5] = target: T3, CDK2/cyclin A (UniProt P24941 1-298; P20248 1-432)
CDK2/cyclin A [6] = target: T3, CDK2/cyclin A; remark: listed apart in the source
CDK2/cyclin A [7] = target: T3, CDK2/cyclin A; remark: listed apart in the source

T2 sequence (P11802 other isoform, or with tags, fused parts or gaps, chain 1 of 2): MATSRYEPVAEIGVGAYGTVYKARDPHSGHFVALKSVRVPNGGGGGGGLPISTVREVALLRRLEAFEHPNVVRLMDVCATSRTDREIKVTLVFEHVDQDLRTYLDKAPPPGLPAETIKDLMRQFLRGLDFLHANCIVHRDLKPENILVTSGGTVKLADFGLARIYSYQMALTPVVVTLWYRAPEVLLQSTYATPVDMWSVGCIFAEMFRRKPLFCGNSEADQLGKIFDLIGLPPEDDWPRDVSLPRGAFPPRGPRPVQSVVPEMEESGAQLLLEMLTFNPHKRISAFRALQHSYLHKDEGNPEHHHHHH
T2 sequence (P24385 whole entry, chain 2 of 2): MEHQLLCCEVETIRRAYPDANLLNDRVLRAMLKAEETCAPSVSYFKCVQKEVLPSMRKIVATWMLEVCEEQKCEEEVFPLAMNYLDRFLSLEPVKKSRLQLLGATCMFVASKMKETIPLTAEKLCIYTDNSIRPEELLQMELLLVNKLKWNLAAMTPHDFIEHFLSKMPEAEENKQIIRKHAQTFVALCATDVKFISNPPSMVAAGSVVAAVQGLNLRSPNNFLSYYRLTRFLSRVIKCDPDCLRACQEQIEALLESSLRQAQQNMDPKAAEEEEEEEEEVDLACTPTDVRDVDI

## HSKRRLIF-NH2 [p21 (152-159) HSKRRLIF-NH2]
CDK2/Cyclin E complex [1]
  % Inhibition, cyclin E/CDK2 kinase: 80%
  IC50, cyclin E/CDK2 kinase, GST-pRb: 3.4 µM
CDK4/Cyclin D1 complex [2]
  % Inhibition, cyclin D1/CDK4 kinase: 72%
CDK2/Cyclin E complex [3]
  % Inhibition, cyclin E/CDK2 kinase: 80%
  IC50, cyclin E/CDK2 kinase: 3.4 µM
CDK4/Cyclin D1 complex [4]
  % Inhibition, cyclin D1/CDK4 kinase: 72%

## HSKRRLFG-NH2 [P21 C-terminius-LFG hybrid HSKRRLFG-NH2]
CDK2/Cyclin E complex [3]
  % Inhibition, cyclin E/CDK2 kinase: 82%
  IC50, cyclin E/CDK2 kinase: 1.6 µM
CDK4/Cyclin D1 complex [4]
  % Inhibition, cyclin D1/CDK4 kinase: 42%

## KA[Abu]RRLFG-NH2 [P21 N-terminus peptide KAURRLFG-NH2]
CDK2/Cyclin E complex [3]
  % Inhibition, cyclin E/CDK2 kinase: 86%
  IC50, cyclin E/CDK2 kinase: 0.074 µM
CDK4/Cyclin D1 complex [4]
  % Inhibition, cyclin D1/CDK4 kinase: 66%
  IC50, cyclin D1/CDK4 kinase: 42 µM

## KAXRRLIF (U at position 3 (read as Abu); C-terminal carboxamide) [P21 N-terminus-LIF hybrid KAURRLIF-NH2]
CDK2/Cyclin E complex [3]
  % Inhibition, cyclin E/CDK2 kinase: 78%
CDK4/Cyclin D1 complex [4]
  % Inhibition, cyclin D1/CDK4 kinase: 83%
  IC50, cyclin D1/CDK4 kinase: 13 µM

## H-HGKRRLIF-NH2 [H-His-Gly-Lys-Arg-Arg-Leu-Ile-Phe-NH2]
CDK2/cyclin A [5]
  Relative activity, Kinase Inhibition (CDK2/cyclin A kinase assay, pRb substrate, [ATP] = 100 µM): 0.1 relative to H-His-Ala-Lys-Arg-Arg-Leu-Ile-Phe-NH2 (=1)

## H-HAKRRLAF-NH2 [H-His-Ala-Lys-Arg-Arg-Leu-Ala-Phe-NH2]
CDK2/cyclin A [6]
  Relative activity, Kinase Inhibition (CDK2/cyclin A kinase assay, pRb substrate, [ATP] = 100 µM): 0.3 relative to H-His-Ala-Lys-Arg-Arg-Leu-Ile-Phe-NH2 (=1)

## H-HAKRRLLF-NH2 [H-His-Ala-Lys-Arg-Arg-Leu-Leu-Phe-NH2]
CDK2/cyclin A [6]
  Relative activity, Kinase Inhibition (CDK2/cyclin A kinase assay, pRb substrate, [ATP] = 100 µM): 1.2 relative to H-His-Ala-Lys-Arg-Arg-Leu-Ile-Phe-NH2 (=1)

## H-HAKRRLVF-NH2 [H-His-Ala-Lys-Arg-Arg-Leu-Val-Phe-NH2]
CDK2/cyclin A [6]
  Relative activity, Kinase Inhibition (CDK2/cyclin A kinase assay, pRb substrate, [ATP] = 100 µM): 0.8 relative to H-His-Ala-Lys-Arg-Arg-Leu-Ile-Phe-NH2 (=1)

B1: H-His-Ala-Lys-Arg-Arg-Leu-Nle-Phe-NH2 (peptide)
peptide: H-HAKRRL[Nle]F-NH2
SMILES: CCCC[C@H](NC(=O)[C@H](CC(C)C)NC(=O)[C@H](CCCNC(=N)N)NC(=O)[C@H](CCCNC(=N)N)NC(=O)[C@H](CCCCN)NC(=O)[C@H](C)NC(=O)[C@@H](N)Cc1c[nH]cn1)C(=O)N[C@@H](Cc1ccccc1)C(N)=O
CDK2/cyclin A [6]
  Relative activity, Kinase Inhibition (CDK2/cyclin A kinase assay, pRb substrate, [ATP] = 100 µM): 0.4 relative to H-His-Ala-Lys-Arg-Arg-Leu-Ile-Phe-NH2 (=1)

B2: H-His-Ala-Lys-Arg-Arg-Leu-Nva-Phe-NH2 (peptide)
peptide: H-HAKRRL[Nva]F-NH2
SMILES: CCC[C@H](NC(=O)[C@H](CC(C)C)NC(=O)[C@H](CCCNC(=N)N)NC(=O)[C@H](CCCNC(=N)N)NC(=O)[C@H](CCCCN)NC(=O)[C@H](C)NC(=O)[C@@H](N)Cc1c[nH]cn1)C(=O)N[C@@H](Cc1ccccc1)C(N)=O
CDK2/cyclin A [6]
  Relative activity, Kinase Inhibition (CDK2/cyclin A kinase assay, pRb substrate, [ATP] = 100 µM): 0.2 relative to H-His-Ala-Lys-Arg-Arg-Leu-Ile-Phe-NH2 (=1)

B3: H-His-Ala-Lys-Arg-Arg-Leu-Cha-Phe-NH2 (peptide)
peptide: H-HAKRRL[Cha]F-NH2
SMILES: CC(C)C[C@H](NC(=O)[C@H](CCCNC(=N)N)NC(=O)[C@H](CCCNC(=N)N)NC(=O)[C@H](CCCCN)NC(=O)[C@H](C)NC(=O)[C@@H](N)Cc1c[nH]cn1)C(=O)N[C@@H](CC1CCCCC1)C(=O)N[C@@H](Cc1ccccc1)C(N)=O
CDK2/cyclin A [6]
  Relative activity, Kinase Inhibition (CDK2/cyclin A kinase assay, pRb substrate, [ATP] = 100 µM): 0.3 relative to H-His-Ala-Lys-Arg-Arg-Leu-Ile-Phe-NH2 (=1)

## H-HAKRRLFF-NH2 [H-His-Ala-Lys-Arg-Arg-Leu-Phe-Phe-NH2]
CDK2/cyclin A [6]
  Relative activity, Kinase Inhibition (CDK2/cyclin A kinase assay, pRb substrate, [ATP] = 100 µM): 0.4 relative to H-His-Ala-Lys-Arg-Arg-Leu-Ile-Phe-NH2 (=1)

B4: H-His-Ala-Lys-Arg-Arg-Leu-1Nap-Phe-NH2 (peptide)
peptide: H-HAKRRL[1Nal]F-NH2
SMILES: CC(C)C[C@H](NC(=O)[C@H](CCCNC(=N)N)NC(=O)[C@H](CCCNC(=N)N)NC(=O)[C@H](CCCCN)NC(=O)[C@H](C)NC(=O)[C@@H](N)Cc1c[nH]cn1)C(=O)N[C@@H](Cc1cccc2ccccc12)C(=O)N[C@@H](Cc1ccccc1)C(N)=O
CDK2/cyclin A [6]
  Relative activity, Kinase Inhibition (CDK2/cyclin A kinase assay, pRb substrate, [ATP] = 100 µM): 0.5 relative to H-His-Ala-Lys-Arg-Arg-Leu-Ile-Phe-NH2 (=1)

## H-HAKRRLF-NH2 [H-His-Ala-Lys-Arg-Arg-Leu-Phe-NH2]
CDK2/cyclin A [6]
  Relative activity, Kinase Inhibition (CDK2/cyclin A kinase assay, pRb substrate, [ATP] = 100 µM): < 0.1 relative to H-His-Ala-Lys-Arg-Arg-Leu-Ile-Phe-NH2 (=1)

B5: H-His-Ala-Lys-Arg-Arg-Leu-Ile-Cha-NH2 (peptide)
peptide: H-HAKRRLI[Cha]-NH2
SMILES: CC[C@H](C)[C@H](NC(=O)[C@H](CC(C)C)NC(=O)[C@H](CCCNC(=N)N)NC(=O)[C@H](CCCNC(=N)N)NC(=O)[C@H](CCCCN)NC(=O)[C@H](C)NC(=O)[C@@H](N)Cc1c[nH]cn1)C(=O)N[C@@H](CC1CCCCC1)C(N)=O
CDK2/cyclin A [7]
  Relative activity, Kinase Inhibition (CDK2/cyclin A kinase assay, pRb substrate, [ATP] = 100 µM): < 0.1 relative to H-His-Ala-Lys-Arg-Arg-Leu-Ile-Phe-NH2 (=1)

B6: H-His-Ala-Lys-Arg-Arg-Leu-Ile-Hof-NH2 (peptide)
peptide: H-HAKRRLI[hPhe]-NH2
SMILES: CC[C@H](C)[C@H](NC(=O)[C@H](CC(C)C)NC(=O)[C@H](CCCNC(=N)N)NC(=O)[C@H](CCCNC(=N)N)NC(=O)[C@H](CCCCN)NC(=O)[C@H](C)NC(=O)[C@@H](N)Cc1c[nH]cn1)C(=O)N[C@@H](CCc1ccccc1)C(N)=O
CDK2/cyclin A [7]
  Relative activity, Kinase Inhibition (CDK2/cyclin A kinase assay, pRb substrate, [ATP] = 100 µM): < 0.1 relative to H-His-Ala-Lys-Arg-Arg-Leu-Ile-Phe-NH2 (=1)
